Tests used:
[1] = biological target: T1, Human TNFR2 expressed on cells (CHO-hTNFR2 cells) (human, UniProt P20333 23-461); test: flow cytometry; soluble scFv inhibiting TNF (1 nM) binding to CHO-hTNFR2 cells (FIG. 7)
T1 construct: also called CHO cells overexpressing human TNFR2; human TNFR2 reporter cells (HEK293)
T1 sequence: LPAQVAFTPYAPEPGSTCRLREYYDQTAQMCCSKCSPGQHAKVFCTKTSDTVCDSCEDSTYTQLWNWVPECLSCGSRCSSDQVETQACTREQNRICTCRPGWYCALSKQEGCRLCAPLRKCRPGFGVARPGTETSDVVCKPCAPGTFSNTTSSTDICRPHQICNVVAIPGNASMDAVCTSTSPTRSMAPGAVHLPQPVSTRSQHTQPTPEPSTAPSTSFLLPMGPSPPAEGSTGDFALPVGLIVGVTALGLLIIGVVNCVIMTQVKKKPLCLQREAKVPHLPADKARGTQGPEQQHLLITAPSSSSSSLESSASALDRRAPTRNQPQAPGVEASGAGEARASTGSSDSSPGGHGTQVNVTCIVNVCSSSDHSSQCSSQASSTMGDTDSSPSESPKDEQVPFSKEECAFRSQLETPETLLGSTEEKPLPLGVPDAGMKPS

[2] = biological target: T2, recombinant human TNFR2-hFc protein (human, UniProt P20333 23-257); test: flow cytometry; hTNFR2-Fc binding to scFv displayed on yeast; one site binding fit (FIG. 6B)
T2 construct: also called hTNFR2-Fc; human TNFR2-Fc; not shown: human Fc
T2 sequence: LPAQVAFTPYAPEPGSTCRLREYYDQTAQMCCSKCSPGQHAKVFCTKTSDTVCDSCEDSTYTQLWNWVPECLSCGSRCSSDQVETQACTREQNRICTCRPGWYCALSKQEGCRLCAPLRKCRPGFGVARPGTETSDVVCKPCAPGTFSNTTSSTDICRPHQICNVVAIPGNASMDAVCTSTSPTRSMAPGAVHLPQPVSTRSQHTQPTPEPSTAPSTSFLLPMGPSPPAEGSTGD

[3] = biological target: T2, recombinant human TNFR2-hFc protein; test: flow cytometry; TNFR2-Fc binding to scFv displayed on yeast (FIGS. 6A-6C)
[4] = biological target: T2, recombinant human TNFR2-hFc protein; test: flow cytometry; hTNFR2-Fc binding to scFv displayed on yeast; one site binding fit (FIG. 6C)
[5] = biological target: T1, Human TNFR2 expressed on cells …; test: flow cytometry; IgG binding to CHO-hTNFR2 cells; four parameter fit (FIG. 10)
[6] = biological target: T3, recombinant human TNFR2-His (human, UniProt P20333 23-257); test: biolayer interferometry (BLI); IgG1 and TNFR2-His protein (FIG. 11)
T3 construct: also called hTNFR2-His; TNFR2-His protein; not shown: His tag
T3 sequence: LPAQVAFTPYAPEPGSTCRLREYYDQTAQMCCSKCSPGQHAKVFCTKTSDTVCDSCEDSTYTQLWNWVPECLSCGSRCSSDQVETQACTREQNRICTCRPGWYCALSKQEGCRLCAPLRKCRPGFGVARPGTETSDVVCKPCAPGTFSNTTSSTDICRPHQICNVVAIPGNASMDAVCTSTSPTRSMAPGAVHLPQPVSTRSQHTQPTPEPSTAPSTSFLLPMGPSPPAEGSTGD

[7] = biological target: T1, Human TNFR2 expressed on cells …; test: flow cytometry; IgG inhibiting TNF (1 nM) binding to CHO-hTNFR2 cells (FIG. 13B); FIG. 13B
[8] = biological target: T1, Human TNFR2 expressed on cells …; test: flow cytometry; IgG inhibiting TNF (1 nM) binding to CHO-hTNFR2 cells (FIG. 13A); FIG. 13A

B1: UC2.3.3 (S4-2 1D10-1G9-1F10) scFv (scFv)
scFv: QVQLLESGGGLVQPGGSLRLSCAASGFTFSTYAMSWIRQAPGKGLEWVSIISDGGDATVYADSVKGRFTISRDNNRNTLYLQMNSLRAEDTAVYYCARDGTSAAAFDSWGQGTLVTVSSASSGGSTSGSGKPGSGEGSSGSARDIQMTQSPSSLSASVGDRVTITCQASQDITNFLNWYQQKPGKAPKLLIYDASTLQTGVPSRFSGSGSGTDFTFTISSLQPEDIATYYCQQSDSYPITFGQGTKVEIKR
notes: also called UC2.3.3 (monomer)
For B1, the IC50 [1] was 3.94 nM, the Kd [2] was 1.35 nM and the “fold higher affinity (vs parental scFv)” value [3] was 10 fold.

B2: UC2.3.15 (S4-2 1D10-1G9-1H12) scFv (scFv)
scFv: QVQLLESGGGLVQPGGSLRLSCAVSGFTFSTYAMSWIRQAPGKGLEWVSIISDGGDATVYADSVKGRFTISRDNSKNTLYLQMNSLRAEDTAVYYWARDGTSAAAFDSWGQGTLVTVSSANSGGSTSGSGKPGSGEGSSGSARDIQMTQSPSSLSASVGDRVTITCQASQDITNFLNWYQQKPGKAPKLLIYDASTLQTGVPSRFSGSGSGTDFTFTISSLQPEDIATYYCQQSDSYPITFGQGTKVEIKR
B2 was tested, and the Kd [4] was 0.78 nM and the “fold higher affinity (vs parental scFv)” value [3] was 10 fold.

B3: UC2.3.3 scFv (dimer) (scFv)
scFv: QVQLLESGGGLVQPGGSLRLSCAASGFTFSTYAMSWIRQAPGKGLEWVSIISDGGDATVYADSVKGRFTISRDNNRNTLYLQMNSLRAEDTAVYYCARDGTSAAAFDSWGQGTLVTVSSASSGGSTSGSGKPGSGEGSSGSARDIQMTQSPSSLSASVGDRVTITCQASQDITNFLNWYQQKPGKAPKLLIYDASTLQTGVPSRFSGSGSGTDFTFTISSLQPEDIATYYCQQSDSYPITFGQGTKVEIKR
notes: also called UC2.3.3 (dimer)
With B3 the IC50 [1] was 1.72 nM.

B4: UC2-IgG1 (antibody, V domains shown)
VH: QVQLLESGGGLVQPGGSLRLSCAASGFTFSTYAMSWVRQAPGKGLEWVSIISDGGDATFYADSVKGRFTISRDNSKNTLYLQMNSLRAEDTAVYYCARDGTSAAAFDSWGQGTLVTVSS
VL: DIQMTQSPSSLSASVGDRVTITCQASQDITNFLNWYQQKPGKAPKLLIYDASTLQTGVPSRFSGSGSGTDFTFTISSLQPEDIATYYCQQSDSYPITFGQGTKVEIKR
notes: Full-length human IgG1; also called anti-human TNFR2 IgG UC2
B4 showed an EC50 [5] of 97.9 nM.

B5: UC2.3.8-IgG1 (antibody, V domains shown)
VH: QVQLLESGGGLVQPGGSLRLSCAASGFTFSTYAMSWIRQAPGKGLEWVSIISDGGDATVYADSVKGRFTISRDNNRNTLYLQMNSLRAEDTAVYYCARDGTSAAAFDSWGQGTLVTVSS
VL: DIQMTQSPSSLSASVGDRVTITCQASQDITNFLNWYQQKPGKAPKLLIYDASRRRAGVPSRFSGSGSGTDFTFTISSLQPEDIATYYCQQSDSYPITFGQGTKVEIKR
notes: Full-length human IgG1; UC2.3.3 heavy chain combined with UC2.3.7 light chain; also called anti-human TNFR2 IgG UC2.3.8
B5 was tested, and the Kd [6] was 0.344 nM and the IC50 [7] was 0.088 nM.

B6: UC2.3.7-IgG1 (antibody, V domains shown)
VH: QVQLLESGGGLVQPGGSLRLSCAASGFTFSTYAMSWIRQAPGKGLEWVSIISDGGDATVYADSVKGRFTISRDNSKNTLYLQMNSLRAEDTAVYYCARDGTSAAAFDSWGQGTLVTVSS
VL: DIQMTQSPSSLSASVGDRVTITCQASQDITNFLNWYQQKPGKAPKLLIYDASRRRAGVPSRFSGSGSGTDFTFTISSLQPEDIATYYCQQSDSYPITFGQGTKVEIKR
notes: Full-length human IgG1; also called anti-human TNFR2 IgG UC2.3.7
B6 gave a Kd [6] of 17.1 nM and an IC50 [8] of 8.69 nM.

B7: UC2.3.3-IgG1 (antibody, V domains shown)
VH: QVQLLESGGGLVQPGGSLRLSCAASGFTFSTYAMSWIRQAPGKGLEWVSIISDGGDATVYADSVKGRFTISRDNNRNTLYLQMNSLRAEDTAVYYCARDGTSAAAFDSWGQGTLVTVSS
VL: DIQMTQSPSSLSASVGDRVTITCQASQDITNFLNWYQQKPGKAPKLLIYDASTLQTGVPSRFSGSGSGTDFTFTISSLQPEDIATYYCQQSDSYPITFGQGTKVEIKR
notes: Full-length human IgG1; also called anti-human TNFR2 IgG UC2.3.3
B7 gave a Kd [6] of 0.573 nM, an IC50 [7] of 0.68 nM and an IC50 [8] of 0.89 nM.

From patent publication US20220281990A1 (MERRIMACK PHARMACEUTICALS, published 2022)
